Measured values published in PMC10269814, “New Perspectives on Escherichia coli Signal Peptidase I Substrate Specificity: Investigating Why the TasA Cleavage Site Is Incompatible with LepB Cleavage” (Microbiology Spectrum, 2023).
In brackets after ≈: the same amount, converted by molar mass. Several values for one entry are separate records, joined by “and”; a condition that tells them apart may be missing. Identical values can stand only once. Ends that are not written are not given here. Peptide text beside a SMILES is read from it.

Key:
[1] = target: T1, LepB Δ2-76 His-SUMO (Escherichia coli signal peptidase I) (Escherichia coli, UniProt P00803); test: biochemical; assay type: binding
T1 construct: purchased Sapphire Bioscience
Description: Surface plasmon resonance (SPR) analysis on a Pioneer FE system (Sartorius, Göttingen, Germany) was used to determine the on- and off-rates of custom peptides (Mimotopes, Mulgrave, VIC, Australia) with purchased LepB (Sapphire Bioscience, Redfern, NSW, Australia) ([9]). Briefly, LepB Δ2-76 His-SUMO was immobilized onto a CDH chip (Sartorius, Göttingen, Germany) onto flow cells 1 and 3 by an amine coupling reaction using 0.2 M 1-ethyl-3-[(3-dimethylamino)propyl]-carbodiimide (EDC) and 0.05 M N-hydroxysuccinimide (NHS). The EDC-NHS mix was caused to flow over at 15 μL/min for 100 s, LepB was injected at 10 μL/min for 10 min, and then ethanolamine was caused to flow over at 10 μL/min for 10 min. Flow cell 2 was used as a reference cell, and no LepB was injected over this cell. The assay was performed using a OneStep assay method with 75% of the loop. Peptides were caused to flow over the flow cells at a concentration of 50 μM at a flow rate of 50 μL/min with a dissociation period of 180 s. A regeneration cycle at a flow rate of 50 μL/min for 3 min with Tris-EDTA (TE) was completed after every cycle. Data were collected in triplicate, and analysis was completed with the Qdat analysis software (Sartorius, Göttingen, Germany; see Fig. S1 in the supplemental material).

LepB Δ2-76 = target: T2, LepB Δ2-76 (Escherichia coli, UniProt P00803); test: biochemical
T2 construct: made in house; host or cells: E. coli BL21(DE3)
Protocol: The cleavage of the fluorescent peptide, Dabcyl-[…]-Edans, by LepB leads to an increase in relative fluorescence over time. If the ability of LepB to cleave this peptide is inhibited, the increase in relative fluorescence per second should decrease in a concentration-dependent manner.
A reaction in a 100-μL reaction mixture in phosphate-buffered saline (PBS) (pH 7.4) containing 0.1% Triton X-100 was initiated by adding 450 nM LepB Δ2-76 to a black, clear-bottom 96-well plate (Corning, Corning, NY, USA). In triplicate, wells contained a 2-fold serial dilution of the peptide being tested from 0.5 mg/mL and 10 μM fluorescent peptide, Dabcyl-[…]-Edans (Mimotopes, Mulgrave, VIC, Australia). While the peptide containing the two fluorophores is intact, the Edans emission is quenched by Dabcyl through FRET. However, once the peptide is cleaved by LepB, the fluorophores are no longer in close enough proximity for the transfer of energy and the fluorescence emission of Edans is recorded. The cleavage of the fluorescent peptide by LepB was recorded using an excitation wavelength of 340 nm and an emission wavelength of 490 nm recorded every 2 min for 30 min in a Tecan Infinite 200 Pro plate reader. Data were analyzed using the formula [(RFU2 − RFU1)/(time2 − time1)] = RFU/s on the linear portion of the reaction (where RFU stands for relative fluorescent units), and the absolute IC50 was determined using the simple linear regression analysis on Prism 9.

[2] = test system: Staphylococcus aureus FDA209; assay type: cell-based; conditions: strain FDA209, rich medium, subinhibitory DMSO (5%), overnight 37°C
Protocol: (§1) The resistance to the peptides was determined using MIC methods as previously described ([31]). Briefly, 5 × 10^5 cells were added to a 96-well plate which contained a peptide 2-fold serially diluted in either M9 minimal medium containing 5% DMSO and 0.2% glucose or Mueller-Hinton medium containing 5% DMSO. Plates were incubated overnight at 37°C, and the MIC result was scored as the last set of wells that contained no growth of bacteria. Bacteria tested were E. coli MG1655 containing an empty pBAD plasmid, E. coli BL21(DE3) containing an empty pET15b plasmid, S. aureus FDA209, and S. aureus USA300. Peptides 08 and 10 were tested from 0.5 mg/mL, and peptide 11 was tested from 1 mg/mL.

[3] = test system: Staphylococcus aureus USA300; assay type: cell-based; conditions: strain USA300, rich medium, subinhibitory DMSO (5%), overnight 37°C
Protocol: as §1

[4] = test system: E. coli MG1655 (empty pBAD) and E. coli BL21(DE3) (empty pET15b); test: MIC assay against E. coli; assay type: cell-based, Escherichia coli; conditions: rich (Mueller-Hinton) and M9 minimal media, with or without subinhibitory DMSO (5%); overnight 37°C; peptides 08 and 10 from 0.5 mg/mL, 11 from 1 mg/mL
Protocol: as §1

[5] = target: LepB Δ2-76 (Escherichia coli (strain DH5α)) (UniProt P00803)
[6] = target: LepB Δ2-76 His-SUMO (Escherichia coli) (UniProt P00803); test: SPR; LepB Δ2-76 His-SUMO amine-coupled (EDC/NHS) to a CDH chip, Pioneer FE; OneStep method with 75% of the loop; peptides flowed at 50 μM, 50 μL/min, 180 s dissociation; regeneration with Tris-EDTA; triplicate

Molecule	Kd [1]	IC50 (LepB Δ2-76)	IC50 of LepB cleavage of the fluorescent peptide Dabcyl-DAPPAKAA-Edans (FRET enzyme assay) [5]	koff [6]	kon [6]	further results
VGGGTWAAFETL [Peptide 02]	12.8 ± 2.55 µM	1010 µM				
C[C@H](N)C(=O)N[C@@H](C)C(=O)N[C@@H](Cc1ccccc1)C(=O)N[C@@H](CCC(=O)O)C(=O)O [Peptide 11] (H-AAFE-OH)	18.5 ± 0.62 µM	3790 µM				MIC [2]: 1000 µg/mL (≈ 2290 µM); MIC [3]: 1000 µg/mL (≈ 2290 µM)
GGGTWAAIE [Peptide 06]	17.3 ± 0.2 µM	4520 µM				
GGGTWAAFEEGK [Peptide 01]	10.3 µM	1600 µM				
TWAAFN [Peptide 07]	5.38 ± 0.2 µM	1970 µM				
GGTWAAFE [Peptide 05]		967 µM				
GGTWAAFNDV [Peptide 03]	8.71 ± 2.14 µM	1160 µM				
TWAAIE [Peptide 08]	0.7 ± 0.35 µM	647 µM				
VGGGTWAAIEEGKL [Peptide 04]	8.83 ± 2.59 µM	1680 µM				
GGTWAAIE [Peptide 10]						Kd off-rate ([1]; SPR OneStep, LepB amine-coupled to CDH chip, peptide 50 μM, dissociation 180 s, mean ± standard error, triplicate): 0.00421 s⁻¹ and 0.00421 ± 0.00049 s⁻¹; Ka on-rate ([1]; SPR OneStep, Pioneer FE, LepB amine-coupled to CDH chip, peptide 50 μM, flow 50 μL/min, mean ± standard error, triplicate): 4770 ± 590 M⁻¹ s⁻¹; MIC [4]: No MIC was observed
AAFE [peptide 11]			1660 µg/mL	0.442 s⁻¹	15900 M⁻¹ s⁻¹	
GGGTWAAFEEGK [peptide 01]			1930 µg/mL	0.0434 s⁻¹	4440 M⁻¹ s⁻¹	
VGGGTWAAFETL [peptide 02]			1220 µg/mL	0.0147 s⁻¹	1140 M⁻¹ s⁻¹	
GGTWAAFNDV [peptide 03]			1210 µg/mL	0.947 s⁻¹	146000 M⁻¹ s⁻¹	
VGGGTWAAIEEGKL [peptide 04]			2340 µg/mL	0.17 s⁻¹	26400 M⁻¹ s⁻¹	
GGTWAAFE [peptide 05]			810 µg/mL			
GGGTWAAIE [peptide 06]			3890 µg/mL	0.0208 s⁻¹	1200 M⁻¹ s⁻¹	
TWAAFN [peptide 07]			1390 µg/mL	0.321 s⁻¹	60400 M⁻¹ s⁻¹	
TWAAIE [peptide 08]			446 µg/mL	0.00239 s⁻¹	2500 M⁻¹ s⁻¹	
